B1: Antibody-drug conjugate 1: 900698 antibody cysteine-conjugated to SN-38 via Mc-VC-PAB-DMEDA-PEG linker, DAR about 7.8 (conjugate)
VH: QVQLVESGGGLVKPGGSLRLSCAASGFTFSKYAMSWIRQAPGKGLEWVAEISSGGGYINYADSVKGRFTISRDNAKNSLYLQMNSLRAEDTAVYYCARAIYYYGSSYNYYAMDYWGQGTTVTVSS
VL: DIQMTQSPSSLSASVGDRVTITCRASQDVGTAEAWYQQKPGKAPKLLIYWASTRHTGVPSRFSGSGSGTDFTLTISSLQPEDFATYYCQQYSSYPLTFGQGTKLEIK
B2: Antibody-drug conjugate 2: 900698 antibody cysteine-conjugated to SN-38 via MP2-VC-PAB-DMEDA-PEG linker, DAR about 7.8 (conjugate)
VH: QVQLVESGGGLVKPGGSLRLSCAASGFTFSKYAMSWIRQAPGKGLEWVAEISSGGGYINYADSVKGRFTISRDNAKNSLYLQMNSLRAEDTAVYYCARAIYYYGSSYNYYAMDYWGQGTTVTVSS
VL: DIQMTQSPSSLSASVGDRVTITCRASQDVGTAEAWYQQKPGKAPKLLIYWASTRHTGVPSRFSGSGSGTDFTLTISSLQPEDFATYYCQQYSSYPLTFGQGTKLEIK
B3: 900698: anti-CD73 antibody, VH SEQ ID NO: 35, VL SEQ ID NO: 34 (antibody, V domains shown)
VH: QVQLVESGGGLVKPGGSLRLSCAASGFTFSKYAMSWIRQAPGKGLEWVAEISSGGGYINYADSVKGRFTISRDNAKNSLYLQMNSLRAEDTAVYYCARAIYYYGSSYNYYAMDYWGQGTTVTVSS
VL: DIQMTQSPSSLSASVGDRVTITCRASQDVGTAEAWYQQKPGKAPKLLIYWASTRHTGVPSRFSGSGSGTDFTLTISSLQPEDFATYYCQQYSSYPLTFGQGTKLEIK
modifications: 900696, 900698 (VH); 900695, 900698 (VL)

Tests used:
[1] = tested on: MCF-7 cells; assay: Killing of tumor cells not expressing CD73 (CellTiter-Glo); format: cell-based; conditions: cells not expressing CD73, 5 days, FIG. 5
Experimental: (§1) The specific procedures were as follows: MDA-MB-231 cells and MCF-7 cells were prepared into cell suspensions at densities of 8E4 cells/mL and 7.5E5 cells/mL, respectively, which were then each added onto a 96-well cell culture plate at 100 μL per well. The 96-well cell culture plate was sealed with liquid and then incubated in an incubator at 37° C. with 5% CO2 for 6 h. With an assay medium, the antibody-drug conjugate 1, the antibody-drug conjugate 2, and the 900698 naked antibody were each diluted to 400 μg/mL and then subjected to a 2-fold dilution to give 8 concentrations, resulting in a total of 9 concentrations. The same dilution procedure was performed for the Buffer solution as for the antibody-drug conjugate 1. The gradient dilution solutions were each added at 50 μL/well to the 96-well cell culture plate after the above incubation was completed. Each sample well was then supplemented with 50 μL of the corresponding assay medium. The 96-well cell culture plate was further incubated in an incubator at 37° C. with 5% CO2 for another 5 days. After the incubation was completed, the 96-well plate was removed from the incubator, 100 μL of culture medium was aspirated from each well, and then the equilibrated Celltiter-Glo Luminescent Cell Viability Assay reagent (Promega, #G7573) was added at 100 μL/well. After shaking for reaction in the dark at room temperature for 10 min, 100 μL of culture medium was taken from each well, transferred to the corresponding well of a 96-well black plate, and then subjected to full-wavelength detection using a microplate reader.

[2] = target: T1, human CD73 (CHOK1-huCD73-3F4 cells) (Homo sapiens, UniProt P21589); assay: Cell binding activity to human CD73 antigen expressed on membrane (flow cytometry); format: cell-based; conditions: FACS, FIG. 2
T1 construct: host or cells: CHOK1-huCD73-3F4 (CHO-K1 clone)
T1 sequence (P21589 27-549): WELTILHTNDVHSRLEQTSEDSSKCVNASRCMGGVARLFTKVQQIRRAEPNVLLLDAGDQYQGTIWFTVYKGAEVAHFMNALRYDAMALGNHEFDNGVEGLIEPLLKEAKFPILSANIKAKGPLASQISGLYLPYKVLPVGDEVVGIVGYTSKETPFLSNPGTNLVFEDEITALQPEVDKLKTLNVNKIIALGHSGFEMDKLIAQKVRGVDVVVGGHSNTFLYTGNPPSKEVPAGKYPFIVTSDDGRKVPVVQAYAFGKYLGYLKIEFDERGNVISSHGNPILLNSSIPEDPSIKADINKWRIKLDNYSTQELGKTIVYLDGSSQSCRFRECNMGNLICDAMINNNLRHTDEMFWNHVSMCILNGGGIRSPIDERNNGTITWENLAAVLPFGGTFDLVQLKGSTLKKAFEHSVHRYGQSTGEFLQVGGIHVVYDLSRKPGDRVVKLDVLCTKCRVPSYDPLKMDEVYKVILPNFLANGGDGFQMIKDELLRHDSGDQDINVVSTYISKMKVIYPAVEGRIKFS
Experimental: The binding activity of the antibody-drug conjugate 1 and the antibody-drug conjugate 2 prepared in Example 1 and the 900698 naked antibody to cells expressing human CD73 (CHOK1-huCD73-3F4, Huabo Biopharm) was assayed.
All antigen-binding proteins were diluted to 30 μg/mL with a solution of 1% BSA in PBS (1% BSA/PBS), followed by a 3-fold dilution across 10 gradients. The diluted proteins were each added at 20 μL per well to a 96-well U-bottom plate, with a negative control (adding only 1% BSA/PBS) set up simultaneously. A suspension of cells expressing human CD73 (CHOK1-huCD73-3F4, Huabo Biopharm) in the logarithmic growth phase was taken and centrifuged (1000 rpm×5 min), and then the culture medium was discarded. The cells were resuspended in 1% BSA/PBS until the viable cell density was 1×10^6 cells/mL, then added at 20 μL (2×10^4 cells) per well to the 96-well U-bottom plate containing the anti-CD73 antigen-binding proteins, and incubated at room temperature for reaction for 30 min. The reacted cells in the 96-well U-bottom plate were resuspended in 1% BSA/PBS and centrifuged (300 g×3 min), and then the supernatant was discarded. This washing process was performed once. Then, a 1:200 dilution of PE-goat anti-human-Fc (Jackson ImmunoResearch, #109-115-098) was added, and the cells were incubated in the dark at room temperature for reaction for 15 min. The reacted cells in the 96-well U-bottom plate were further resuspended in 1% BSA/PBS and centrifuged (300 g×3 min), and then the supernatant was discarded. This washing process was performed 3 times. Finally, the cells were resuspended in 100 μL of 1% BSA/PBS per well, and the fluorescence intensity in the PE channel was detected using a flow cytometer (BD, #Canto II).
The results for the binding activity of the antibody-drug conjugate 1, the antibody-drug conjugate 2, and the 900698 naked antibody are shown in FIG. 2 (represented as 1-3 in FIG. 2, respectively).

[3] = tested on: Monkey CD73; assay: Biacore binding kinetics with monkey CD73 protein; conditions: Monkey CD73, Biacore T200, protein A chip, 25° C., 1:1 binding model
Experimental: The binding kinetics of the antibody-drug conjugate 1 and the antibody-drug conjugate 2 prepared in Example 1 and the 900698 naked antibody with a human CD73 protein (manufacturer: ACRO Biosystems, Cat. No. CD3-H52H7) and a monkey CD73 protein (manufacturer: Novoprotein, Cat. No. CI21) were assayed using Biacore (GE, model: T200), with an assay buffer of HBS-EP+ (pH 7.4) and a protein A chip (manufacturer: GE, Cat. No. 29-1275-56).
The temperature for the sample compartment and the flow path was set to 25° C. The protein A chip captured each antigen-binding protein as a ligand, fixing about 100 RU. The human CD73 protein was diluted with the assay buffer to a series of concentrations of 50 nM, 25 nM, 12.5 nM, 6.25 nM, 3.12 nM, and 1.57 nM, serving as analytes, and the assay buffer was used as a 0 concentration control. At a flow rate of 30 μL/min, association was conducted for 120 s, and dissociation was conducted for 600 s. Glycine (10 mM, pH 1.5) was used for regeneration at a flow rate of 50 μL/min for 60 s in a multi-cycle kinetic assay. A 1:1 binding model was used, and the Fit Local mode was selected to determine the association rate constant (ka), dissociation rate constant (kd), and equilibrium dissociation constant (KD).

[4] = tested on: MDA-MB-231 cells; assay: Killing of tumor cells highly expressing CD73 (CellTiter-Glo); format: cell-based, human; conditions: cells highly expressing CD73, 5 days, FIG. 6
Experimental: as §1

| Molecule | killing effect on MCF-7 cells [1] | binding activity (affinity) for cells expressing human CD73 [2] | ka [3] [M⁻¹ s⁻¹] | kd [3] [s⁻¹] | killing effect on MDA-MB-231 cells [4] |
| --- | --- | --- | --- | --- | --- |
| B1 | no killing effect | good affinity | 55000 | 1.92e-06 | excellent killing effects |
| B2 | no killing effect | good affinity | 454000 | 0.000114 | excellent killing effects |
| B3 | no killing effect | good affinity | 148000 | 1.8e-05 | no killing effect |
